Assay results as given in US20190322724.

Columns and labels:
[1] = biological target: WT TIMP-2-His6 tyrosine phosphorylated by c-Src
[2] = biological target: wild type human TIMP-2 with C-terminal His6 tag (WT TIMP-2-His6)

Sequence of TIMP-2 Y90E-His6 (chain, as listed by the source Y90E): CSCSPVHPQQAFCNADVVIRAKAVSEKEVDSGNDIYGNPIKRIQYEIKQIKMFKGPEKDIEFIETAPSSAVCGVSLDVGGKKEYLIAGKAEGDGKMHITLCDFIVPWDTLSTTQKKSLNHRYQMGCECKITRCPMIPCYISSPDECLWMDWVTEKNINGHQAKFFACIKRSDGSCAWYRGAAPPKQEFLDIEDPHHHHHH
Sequence of TIMP-2 Y90F-His6 (chain, as listed by the source Y90F): as the sequence (chain, as listed by the source Y90E) above, with E64F counted along it

B1: active 62 kDa MMP-2 (protein)
chain: YNFFPRKPKWDKNQITYRIIGYTPDLDPETVDDAFARAFQVWSDVTPLRFSRIHDGEADIMINFGRWEHGDGYPFDGKDGLLAHAFAPGTGVGGDSHFDDDELWTLGEGQVVRVKYGNADGEYCKFPFLFNGKEYNSCTDTGRSDGFLWCSTTYNFEKDGKYGFCPHEALFTMGGNAEGQPCKFPFRFQGTSYDSCTTEGRTDGYRWCGTTEDYDRDKKYGFCPETAMSTVGGNSEGAPCVFPFTFLGNKYESCTSAGRSDGKMWCATTANYDDDRKWGFCPDQGYSLFLVAAHEFGHAMGLEHSQDPGALMAPIYTYTKNFRLSQDDIKGIQELYGASPDIDLGTGPTPTLGPVTPEICKQDIVFDGIAQIRGEIFFFKDRFIWRTVTPRDKPMGPLLVATFWPELPEKIDAVYEAPQEEKAVFFAGNEYWIYSASTLERGYPKPLTSLGLPPDVQRVDAAFNWSKNKKTYIFAGDKFWRYNEVKKKMDPGFPKLIADAWNAIPDNLDAVVDLQGGGHSYFFKGAYYLKLENQSLKSVKFGSIKSDWLGC
**Q.** How did the “MMP-2 enzymatic activity on a fluorogenic peptide substrate” value (from here on “MMP-2 enzymatic activity”) (TIMP-2 Y90E-His6) turn out when B1 was run?
**A.** phosphomimetic TIMP-2 Y90E inhibitory function correlates with significantly less MMP-2 enzymatic activity

**Q.** What about the “MMP-2 enzymatic activity” value (TIMP-2 Y90F-His6) of the same protein?
**A.** non-phosphorylatable Y90F displayed a slightly less MMP-2 inhibitory activity compared the WT TIMP-2

**Q.** What about the “MMP-2 enzymatic activity” value [1] of the same protein?
**A.** phosphoTIMP-2 (pWT) is significantly (˜25 percent) more inhibitory than the non-phosphorylated WT TIMP-2 toward MMP-2

**Q.** And the “MMP-2 enzymatic activity” value [2]?
**A.** as expected WT TIMP-2 acts as an MMP-2 inhibitor
